According to patent US20100285005A1 (Eli Lilly, published 2010):

Assays:
[1] = target: human CXCR4 receptor with a C-terminal linear C9 peptide tag (human); experiment: SPR (Biacore 2000), C9-tagged CXCR4 captured by 1D4 antibody, antibody injected, 4 °C
[2] = target: T1, human CXCR4, endogenous on human cells (CCRF-CEM leukemia cells; U937 histiocytic lymphoma cells) (human, UniProt P61073 1-352); experiment: inhibition of 125I-SDF-1α binding to CCRF-CEM cells expressing endogenous CXCR4 (SPA); antibody III's own average value
T1 construct: whole, on cells
Procedure: SDF-1 binding to CXCR4 is the first step in activating the CXCR4 intracellular signaling pathway. To determine if an antibody can block the interaction of SDF-1 and CXCR4, human leukemia CCRF-CEM cells expressing endogenous CXCR4 are used in an ¹²⁵I-labeled SDF-1α binding assay. The assay is performed in a 96-well U-bottom, non-treated polystyrene plate. The binding assay buffer is prepared with RPMI 1640 medium containing 10 mM N-2-hydroxyethylpiperazine-N′-2-ethanesulfonic acid (HEPES), pH 7.5, and 0.2% bovine serum albumin (BSA). Briefly, 200 μL reaction mixtures containing 300 pM ligand (60 pM ¹²⁵I-SDF-1α and 240 pM cold SDF-1α), different concentrations of the test antibody in assay buffer, 100,000 human CCRF-CEM cells, and 0.5 mg scintillation proximity assay (SPA) beads are incubated at room temperature for 2 hours. Plates are then counted in a liquid scintillation and luminescence counter in SPA mode. CXCR4 antagonists decrease the bound radioactivity in this assay in a dose-dependent manner. The inhibitory potency (IC₅₀) of a test antibody is calculated using GraphPad Prism software, based on the dose-dependent decrease of bound radioactivity.

[3] = target: T1, human CXCR4, endogenous on human cells …; experiment: cell-based or functional assay

T1 sequence (P61073 whole entry): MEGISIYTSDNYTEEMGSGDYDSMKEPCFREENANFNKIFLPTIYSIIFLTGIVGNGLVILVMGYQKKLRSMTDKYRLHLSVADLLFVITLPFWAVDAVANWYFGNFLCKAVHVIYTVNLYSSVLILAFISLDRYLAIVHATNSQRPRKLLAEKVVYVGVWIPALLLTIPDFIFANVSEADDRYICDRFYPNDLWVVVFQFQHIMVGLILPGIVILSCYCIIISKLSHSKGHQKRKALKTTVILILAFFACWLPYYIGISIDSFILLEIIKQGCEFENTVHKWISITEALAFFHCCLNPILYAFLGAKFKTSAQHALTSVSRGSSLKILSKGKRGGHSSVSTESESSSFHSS

Row | Binder | Kd [1] [nM] | koff [1] [s⁻¹] | kon [1] [M⁻¹ s⁻¹] | IC50 [2] [nM] | IC50, chemotaxis assay (SDF-1α-driven migration of U937 cells) [3] [nM]
1 | Antibody III (antibody, human IgG4 S228P, kappa, F234A L235A, V domains shown, Human engineered anti-CXCR4 antibody; also called the antibody III) VH: EVQLVESGGGLVQPGGSLRLSCAASGFTSTDYYFSWVRQAPGKGLEWVGFIRYKSKGYTTEYSGSVKGRFTISRDDSKNSLYLQMNSLKTEDTAVYYCAREPITTDPRDYWGQGTLVTVSS VL: DIVMTQSPDSLAVSLGERATINCKSSQSLFNSRTRKKYLAWYQQKPGQPPKLLIYWASKRKSGVPDRFSGSGSGTDFTLTISSLQAEDVAVYYCKQSRFLRAFGQGTKLEIKR | 1.54 | 0.00172 | 1.12e+06 | 0.45 | 
2 | Antibody V (antibody, human IgG4 S228P, kappa, F234A L235A, V domains shown) VH: EVQLVESGGGLVQPGGSLRLSCAASGFTSTDYYFSWVRQAPGKGLEWVGFIRHKSKGYTTEYSGSVKGRFTISRDDSKNSLYLQMNSLKTEDTAVYYCAREPITTDPRDYWGQGTLVTVSS VL: DIVMTQSPDSLAVSLGERATINCKSSQSLFNSRTRKKYLAWYQQKPGQPPKLLIYWASKRKSGVPDRFSGSGSGTDFTLTISSLQAEDVAVYYCKQSRFLRAFGQGTKLEIKR | 0.88 | 0.00168 | 1.91e+06 |  | ≤ 30
3 | Antibody IV (antibody, human IgG4 S228P, kappa, F234A L235A, V domains shown) VH: EVQLVESGGGLVQPGGSLRLSCAASGFTSTDYYFSWVRQAPGKGLEWVGFIRNKRKGYTTEYSGSVKGRFTISRDDSKNSLYLQMNSLKTEDTAVYYCAREPITTDPRDYWGQGTLVTVSS VL: DIVMTQSPDSLAVSLGERATINCKSSQSLFNSRTRKKYLAWYQQKPGQPPKLLIYWASKRKSGVPDRFSGSGSGTDFTLTISSLQAEDVAVYYCKQSRFLRAFGQGTKLEIKR | 5.14 | 0.00398 | 774000 |  | ≤ 30
4 | Antibody II (antibody, human IgG4 S228P, kappa, F234A L235A, V domains shown) VH: EVQLVESGGGLVQPGGSLRLSCAASGFTSTDYYFSWVRQAPGKGLEWVGFIRSKSKGYTTEYSGSVKGRFTISRDDSKNSLYLQMNSLKTEDTAVYYCAREPITTDPRDYWGQGTLVTVSS VL: DIVMTQSPDSLAVSLGERATINCKSSQSLFNSRTRKKYLAWYQQKPGQPPKLLIYWASKRKSGVPDRFSGSGSGTDFTLTISSLQAEDVAVYYCKQSRFLRAFGQGTKLEIKR | 0.72 | 0.00181 | 2.5e+06 |  | ≤ 30
5 | Antibody I (antibody, human IgG4 S228P, kappa, F234A L235A, V domains shown) VH: EVQLVESGGGLVQPGGSLRLSCAASGFTSTDYYFSWVRQAPGKGLEWVGFIRTKSKGYTTEYSGSVKGRFTISRDDSKNSLYLQMNSLKTEDTAVYYCAREPITTDPRDYWGQGTLVTVSS VL: DIVMTQSPDSLAVSLGERATINCKSSQSLFNSRTRKKYLAWYQQKPGQPPKLLIYWASKRKSGVPDRFSGSGSGTDFTLTISSLQAEDVAVYYCKQSRFLRAFGQGTKLEIKR | 0.68 | 0.00161 | 2.36e+06 |  | ≤ 30
